The record followed here is US20210032299A1 (Eli Lilly, published 2021).

Substitutions are numbered along the chain they refer to. Starred links: 1 amine or outer side, 2 acyl side, 3 side chain; linkers in the order of their positions; H or OH if unused. Non-standard residues stand in square brackets, D forms with d. Groups on a side chain read outwards from the residue. No end group written: not given here. *: point of attachment. C20 diacid = O=C(O)CCCCCCCCCCCCCCCCCCC(=O)*; αMePhe(2-F) = C[C@](N)(Cc1ccccc1F)C(=O)O; γGlu = O=C(O)[C@H](CCC(=O)[*:2])N[*:1]; αMeF = C[C@](N)(Cc1ccccc1)C(=O)O; 4Pal = N[C@@H](Cc1ccncc1)C(=O)O; αMeL = CC(C)C[C@](C)(N)C(=O)O; AEEA = NCCOCCOCC(=O)O; Aib = CC(C)(N)C(=O)O

First the molecules themselves.
T1: human glucose-dependent insulinotropic polypeptide (GIP) receptor (human, UniProt P48546 22-466)
T1 construct: whole, on cells; Assayed as crude membranes of stably transfected CHO cells; also called hGIPR; human GIP receptor
T1 sequence (looked up): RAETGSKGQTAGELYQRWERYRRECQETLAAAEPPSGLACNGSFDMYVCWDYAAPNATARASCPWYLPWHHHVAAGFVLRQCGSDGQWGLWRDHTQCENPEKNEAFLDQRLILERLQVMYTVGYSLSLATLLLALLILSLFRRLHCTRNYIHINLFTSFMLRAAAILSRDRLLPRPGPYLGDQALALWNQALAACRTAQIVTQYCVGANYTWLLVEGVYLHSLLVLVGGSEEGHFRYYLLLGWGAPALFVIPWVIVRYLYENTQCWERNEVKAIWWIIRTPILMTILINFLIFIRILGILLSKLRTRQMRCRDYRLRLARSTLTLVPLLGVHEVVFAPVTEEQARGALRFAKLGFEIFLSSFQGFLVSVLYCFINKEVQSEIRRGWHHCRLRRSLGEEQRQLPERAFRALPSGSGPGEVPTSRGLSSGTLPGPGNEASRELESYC

B1: Example 51 (peptide)
peptide: Y[Aib]EGT[αMePhe(2-F)]ISDYSI[αMeL]LDKK([AEEA-AEEA-γGlu-C20 diacid])HQ[Aib]DFVE[4Pal]LLAGGPSSGAPPPS-NH2
modifications: N-terminus assumed
SMILES: CC[C@H](C)[C@H](NC(=O)[C@H](CO)NC(=O)[C@H](Cc1ccc(O)cc1)NC(=O)[C@H](CC(=O)O)NC(=O)[C@H](CO)NC(=O)[C@@H](NC(=O)[C@](C)(Cc1ccccc1F)NC(=O)[C@@H](NC(=O)CNC(=O)[C@H](CCC(=O)O)NC(=O)C(C)(C)NC(=O)[C@@H](N)Cc1ccc(O)cc1)[C@@H](C)O)[C@@H](C)CC)C(=O)N[C@@](C)(CC(C)C)C(=O)N[C@@H](CC(C)C)C(=O)N[C@@H](CC(=O)O)C(=O)N[C@@H](CCCCN)C(=O)N[C@@H](CCCCNC(=O)COCCOCCNC(=O)COCCOCCNC(=O)CC[C@H](NC(=O)CCCCCCCCCCCCCCCCCCC(=O)O)C(=O)O)C(=O)N[C@@H](Cc1c[nH]cn1)C(=O)N[C@@H](CCC(N)=O)C(=O)NC(C)(C)C(=O)N[C@@H](CC(=O)O)C(=O)N[C@@H](Cc1ccccc1)C(=O)N[C@H](C(=O)N[C@@H](CCC(=O)O)C(=O)N[C@@H](Cc1ccncc1)C(=O)N[C@@H](CC(C)C)C(=O)N[C@@H](CC(C)C)C(=O)N[C@@H](C)C(=O)NCC(=O)NCC(=O)N1CCC[C@H]1C(=O)N[C@@H](CO)C(=O)N[C@@H](CO)C(=O)NCC(=O)N[C@@H](C)C(=O)N1CCC[C@H]1C(=O)N1CCC[C@H]1C(=O)N1CCC[C@H]1C(=O)N[C@@H](CO)C(N)=O)C(C)C
B2: Example 69 (peptide)
peptide: Y[Aib]EGTFISDYSI[αMeL]LDKK([AEEA-AEEA-γGlu-C20 diacid])HQ[Aib]DFVEYLLEGGPSSGAPPPS-NH2
modifications: N-terminus assumed
SMILES: CC[C@H](C)[C@H](NC(=O)[C@H](Cc1ccccc1)NC(=O)[C@@H](NC(=O)CNC(=O)[C@H](CCC(=O)O)NC(=O)C(C)(C)NC(=O)[C@@H](N)Cc1ccc(O)cc1)[C@@H](C)O)C(=O)N[C@@H](CO)C(=O)N[C@@H](CC(=O)O)C(=O)N[C@@H](Cc1ccc(O)cc1)C(=O)N[C@@H](CO)C(=O)N[C@H](C(=O)N[C@@](C)(CC(C)C)C(=O)N[C@@H](CC(C)C)C(=O)N[C@@H](CC(=O)O)C(=O)N[C@@H](CCCCN)C(=O)N[C@@H](CCCCNC(=O)COCCOCCNC(=O)COCCOCCNC(=O)CC[C@H](NC(=O)CCCCCCCCCCCCCCCCCCC(=O)O)C(=O)O)C(=O)N[C@@H](Cc1c[nH]cn1)C(=O)N[C@@H](CCC(N)=O)C(=O)NC(C)(C)C(=O)N[C@@H](CC(=O)O)C(=O)N[C@@H](Cc1ccccc1)C(=O)N[C@H](C(=O)N[C@@H](CCC(=O)O)C(=O)N[C@@H](Cc1ccc(O)cc1)C(=O)N[C@@H](CC(C)C)C(=O)N[C@@H](CC(C)C)C(=O)N[C@@H](CCC(=O)O)C(=O)NCC(=O)NCC(=O)N1CCC[C@H]1C(=O)N[C@@H](CO)C(=O)N[C@@H](CO)C(=O)NCC(=O)N[C@@H](C)C(=O)N1CCC[C@H]1C(=O)N1CCC[C@H]1C(=O)N1CCC[C@H]1C(=O)N[C@@H](CO)C(N)=O)C(C)C)[C@@H](C)CC
B3: Example 53 (peptide)
peptide: Y[Aib]EGTFISDYSI[αMeL]LDKK([AEEA-AEEA-γGlu-C20 diacid])HQ[Aib]DFVEYLLAGGPSSGAPPPS-NH2
modifications: N-terminus assumed
SMILES: CC[C@H](C)[C@H](NC(=O)[C@H](Cc1ccccc1)NC(=O)[C@@H](NC(=O)CNC(=O)[C@H](CCC(=O)O)NC(=O)C(C)(C)NC(=O)[C@@H](N)Cc1ccc(O)cc1)[C@@H](C)O)C(=O)N[C@@H](CO)C(=O)N[C@@H](CC(=O)O)C(=O)N[C@@H](Cc1ccc(O)cc1)C(=O)N[C@@H](CO)C(=O)N[C@H](C(=O)N[C@@](C)(CC(C)C)C(=O)N[C@@H](CC(C)C)C(=O)N[C@@H](CC(=O)O)C(=O)N[C@@H](CCCCN)C(=O)N[C@@H](CCCCNC(=O)COCCOCCNC(=O)COCCOCCNC(=O)CC[C@H](NC(=O)CCCCCCCCCCCCCCCCCCC(=O)O)C(=O)O)C(=O)N[C@@H](Cc1c[nH]cn1)C(=O)N[C@@H](CCC(N)=O)C(=O)NC(C)(C)C(=O)N[C@@H](CC(=O)O)C(=O)N[C@@H](Cc1ccccc1)C(=O)N[C@H](C(=O)N[C@@H](CCC(=O)O)C(=O)N[C@@H](Cc1ccc(O)cc1)C(=O)N[C@@H](CC(C)C)C(=O)N[C@@H](CC(C)C)C(=O)N[C@@H](C)C(=O)NCC(=O)NCC(=O)N1CCC[C@H]1C(=O)N[C@@H](CO)C(=O)N[C@@H](CO)C(=O)NCC(=O)N[C@@H](C)C(=O)N1CCC[C@H]1C(=O)N1CCC[C@H]1C(=O)N1CCC[C@H]1C(=O)N[C@@H](CO)C(N)=O)C(C)C)[C@@H](C)CC
B4: Example 62 (peptide)
peptide: Y[Aib]EGT[αMeF]ISDYSI[αMeL]LDKK([AEEA-AEEA-γGlu-C20 diacid])HQ[Aib]EFVE[4Pal]LLAAGPSSGAPPPS-NH2
modifications: N-terminus assumed
SMILES: CC[C@H](C)[C@H](NC(=O)[C@H](CO)NC(=O)[C@H](Cc1ccc(O)cc1)NC(=O)[C@H](CC(=O)O)NC(=O)[C@H](CO)NC(=O)[C@@H](NC(=O)[C@](C)(Cc1ccccc1)NC(=O)[C@@H](NC(=O)CNC(=O)[C@H](CCC(=O)O)NC(=O)C(C)(C)NC(=O)[C@@H](N)Cc1ccc(O)cc1)[C@@H](C)O)[C@@H](C)CC)C(=O)N[C@@](C)(CC(C)C)C(=O)N[C@@H](CC(C)C)C(=O)N[C@@H](CC(=O)O)C(=O)N[C@@H](CCCCN)C(=O)N[C@@H](CCCCNC(=O)COCCOCCNC(=O)COCCOCCNC(=O)CC[C@H](NC(=O)CCCCCCCCCCCCCCCCCCC(=O)O)C(=O)O)C(=O)N[C@@H](Cc1c[nH]cn1)C(=O)N[C@@H](CCC(N)=O)C(=O)NC(C)(C)C(=O)N[C@@H](CCC(=O)O)C(=O)N[C@@H](Cc1ccccc1)C(=O)N[C@H](C(=O)N[C@@H](CCC(=O)O)C(=O)N[C@@H](Cc1ccncc1)C(=O)N[C@@H](CC(C)C)C(=O)N[C@@H](CC(C)C)C(=O)N[C@@H](C)C(=O)N[C@@H](C)C(=O)NCC(=O)N1CCC[C@H]1C(=O)N[C@@H](CO)C(=O)N[C@@H](CO)C(=O)NCC(=O)N[C@@H](C)C(=O)N1CCC[C@H]1C(=O)N1CCC[C@H]1C(=O)N1CCC[C@H]1C(=O)N[C@@H](CO)C(N)=O)C(C)C
B5: Example 74 (peptide)
peptide: YXEGTXISDYSIXLDKKHQXDFVEXLLEGGPSSGAPPPS
modifications: Aib2; Iva6; αMeL13; K17((2-[2-(2-Amino-ethoxy)-ethoxy]-acetyl)2-(γ-Glu)-CO-(CH2)18-CO2H); Aib20; 4-Pal25; C-terminal amide
B6: Example 88 (peptide)
peptide: B5 peptide with G29A
modifications: Aib2; Iva6; αMeL13; K17((2-[2-(2-Amino-ethoxy)-ethoxy]-acetyl)2-(γ-Glu)-CO-(CH2)18-CO2H); Aib20; 4-Pal25; C-terminal amide

One test has as its target T2, human GLP-1 receptor (human, UniProt P43220 24-463).
T2 construct: whole, on cells; Assayed as crude membranes of stably transfected HEK293 cells; also called hGLP1R; hGLP-1R
Description: SPA, displacement of [125I]-GLP-1 from hGLP-1R membranes, 0.1% bacitracin. An outline of the steps: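 Binding buffer: 25 mM HEPES pH 7.4, 2.5 mM CaCl₂, 1 mM MgCl₂, 0.1% bacitracin, 0.003% Tween-20, protease inhibitors without EDTA. Four-parameter nonlinear regression; Kᵢ given as geometric mean ± SEM, n = independent replicates run on different days.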
A general note: In a radioligand displacement assay an active substance lowers the binding of a labelled ligand.
One may read the Ki as the dissociation constant of the complex between target and ligand, obtained from inhibition or displacement. As to B1, the Ki was determined as 54.1 nM.
The same measure, in the same setting: the figure for B2 is 144 nM; for B3 it is 62.9 nM.
The same measure, in the same setting: the figure for B4 is 47.6 nM.
Same read-out and setting: the figure for B5 is 395 nM; for B6 it is 261 nM.

Another test has as its target T1, human glucose-dependent insulinotropic …. Description: SPA, displacement of [125I]-GIP from hGIPR membranes, 0.1% bacitracin.
With B1, the inhibition constant Ki was 0.0386 nM.
B2 returned a Ki of 0.0406 nM.
Still for that read-out and setting: as for B3, the figure is 0.0184 nM; as for B4, 0.0414 nM.
The same measure, in the same setting: the figure for B5 is 0.0287 nM.
With B6, the affinity corresponds to a Ki of 0.083 nM. This Ki lies about 2.9-fold higher than the previous one.

In another test the target is T3, human glucagon receptor (human, UniProt P47871 26-477).
T3 construct: whole, on cells; Assayed as crude membranes of stably transfected HEK293 cells; also called hGcgR; GcgR
T3 sequence (P47871 26-477): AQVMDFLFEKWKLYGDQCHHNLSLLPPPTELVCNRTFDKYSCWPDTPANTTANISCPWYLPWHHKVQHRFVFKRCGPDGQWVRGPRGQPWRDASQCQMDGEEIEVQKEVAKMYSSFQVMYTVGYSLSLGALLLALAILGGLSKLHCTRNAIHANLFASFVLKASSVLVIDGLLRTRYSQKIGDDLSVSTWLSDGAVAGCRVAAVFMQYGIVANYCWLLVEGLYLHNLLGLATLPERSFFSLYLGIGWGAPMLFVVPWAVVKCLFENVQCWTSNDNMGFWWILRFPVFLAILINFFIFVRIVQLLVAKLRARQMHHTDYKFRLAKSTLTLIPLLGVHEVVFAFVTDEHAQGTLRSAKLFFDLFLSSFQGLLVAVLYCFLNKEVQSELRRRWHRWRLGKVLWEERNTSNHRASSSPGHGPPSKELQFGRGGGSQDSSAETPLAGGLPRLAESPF
Description: SPA, displacement of [125I]-Gcg from hGcgR membranes, 0.1% bacitracin. A digest of the protocol: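 Binding buffer: 25 mM HEPES pH 7.4, 2.5 mM CaCl₂, 1 mM MgCl₂, 0.003% Tween-20, protease inhibitors without EDTA. Counted by scintillation after 12 h incubation/settling at room temperature. Four-parameter nonlinear fit; Kᵢ given as geometric mean ± SEM of independent replicates run on different days.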
In turn, B1 had a Ki of 26.7 nM.
Take B2: the Ki was found to be 114 nM. This Ki is about 4.3-fold higher than that of the molecule before.
Same read-out and setting: as for B3, the figure is 152 nM; as for B4, 31.3 nM.
B5 had an inhibition constant (Ki) of 511 nM.
Consider B6, for which the Ki came to 788 nM.
